This note sets out measurements from a protein production outcome set (Wang et al. 2014).

The series in a line: label from the status in PepcDB records.

Consider “MAMVFCRGCAKEIHETALNCPQCGASQFPATPVKQLQENGSPWMAITSLVLGILCSLALFDDGEWDLETIVGLGMCSVAGLALGIVSINKKMPGYGIAIAGTVLSAVSLLVFFGLIVN”, for which the protein production entry was “failed”. As for “MAMVVGVAMGNIALGAETVGQINEAYKTKPMLKKPLDECSMRYKTIVDVDVHTAIISIKGNPKFAEGAVVDAGVEASICEGGFTKGQSPLTSLTQRMEKICDVTRAIIRMLL”, the entry is “failed”; as for “MANKNFSLTVYDSEYMETNNKIYQENMEKKIRTISEFPDKVLLKILSLLPSKDVVATGVLSKRWRSLWKDVKTFRTSSVESLQLKINPSATNKDIQSLVNMAVARSMRELRIEMICKNFELPKSFYMFSQLETVILDKVSLMDPPPDVHLPCLKRLHLLSVNSLTNVMIFTIDVPTLRILSIDNTSGKSRPKGVHGFVINTPSLSVNVVFDNPYKFLAPLGSTQYLSLCSVTSHTTYRPAVFSFIFLDHLELCLCSAEQWNLLTRILNYAPRLRVLQLKLYHKHCVKDTKNLMGNQPDLIPKSLSSHLEILEWRQYNDTAQEREAAKYILANASGLRKATFYTESTEKHGMLKEVRMCGQRFKNMSACVK”, “failed”. In the case of “MANKNMRNTTTKVEALIESCRSEGKWHRVIELTDELKTGSPHNECLANFLVGEARLESYLEENALASDSNFGRAKSGLAEARRFLHLALGESGQKAGIALDAYLLLAKLCFACGEYEQSLDNFVKAELNTLAEKELTLRSLKILAESYAIKGLCLEQQTTKPSSKFKKAEKDTEMISCFERASDLGLLYLQEYDLVSGSSGSSNNSTAGSTLNVNASTVQPSSSSFAISSTIPASGPSGLEMNRRMGAILETALQRAPIVLIKTEKLQEAVERYRIMLNAIETRATQSLRLTLARQLAEVLLRGVSGTIYSPPFTGKSGGGTLRGGSSKKLWKPRKYAARQQFNPRNQQEEVILLLLIAEALAVRDTVLSQSPEFRQARQHAMGNVTAVYDLLTLATVRWGLVQLLNESFEKALKFSFGEQHVWRQYGLSLMAAEKHSHALRVLQESMKLTPSDPLPCLLASRLCYESLETVKQGLDYAQQALKREVKGLRPSRSQLFVGIGHQQLAIQSNLKSERDACHKLALDALERAVQFDGNDHLAEYYLSLQYALLGQLAEALVHIRFALALRMEHAPCLHLFALLLTSSRRPREALGVVEDALHEFPDNLQLLHVKAHLQLHLEDAETALGTVQHMLAVWRDVYEAQLAGEEEKHSDTKSGVHLAHSSQMSDKDSNSVYAASLAAVSRVEQALSEAASSLSSFTQRPGPRRPWMLQIEIWLLLADVYLRIDQPNEALNCIHEASQIYPLSHQIMFMRGQVHVYLEQWFDAKQCFLNAVAANPNHTEALRALGEAHLVLGEPRLAEKMLKDAAKLDPSCPKIWFALGKVMEILGDFHASADCFATSLQLEPSCPVLPFTSIPLVFE”, the protein production entry is reported as “failed”. As for “MANKTKSKSLLEKMWRIKWWLLSIFTVLFLLFALFFPLNNYYVELPGGAFDTKEVLTVNKKADDSKGSYNFVAVAQTKATLALMLYTQFNDFAKLQTAEEATGNYSDEDFMRINQFYMETSQNQAVYQGLTLAGKEVSLEYMGVYVLQVADDSSFKGVLNIADTVTAVNGKTFDNSTDMIKYVQGLKLGSKVKVTYMRDGKEKTATGKIIKIANGKNGIGIGLTDHTEIKSPENVKFKLDGVGGPSAGLMFTLAIYDQVSGQDLKAGRKIAGTGTIEKDGAVGDIGGAYLKVKSAADSGADIFFVPNNLVTKEMKKADPDAKTNYQEAKEAAEKLGTKMKIVPVKTAQEAIDYLKKTK”, the protein production entry is on record as “failed”.

For the sequence “MANLKSLPVGDKAPEVVHMVIEVPRGSGNKYEYDPDLGAIKLDRVLPGAQFYPGDYGFIPSTLAEDGDPLDGLVLSTYPLLPGVVVEVRVVGLLLMEDEKGGDAKVIGVVAEDQRLDHIQDIGDVPEGVKQEIQHFFETYKALEAKKGKWVKVTGWRDRKAALEEVRACIARYKG”, the protein production result was “not failed”. Consider “MANLLSTCTSESGNIQHISPQNAGWEYVGFDVWQLKAGESITLPSDERERCLVLVAGLASVKAADSFFYRIGQRMSPFERIPAYSVYLPHHTEAKVTAETDLELAVCSAPGFGELPVRLISPQEVGVEHRGKGRNQRLVHNILPDSQLADSLLVVEVYTNAGATSSWPAHKHDTAVEGQETYLEETYYHRFNPPQGFCLQRVYTDDRSLDECMAVYNRDVVKVPKGYHPVATIAGYDNYYLNVMAGPLRKWRFTWEENHAWINSPDYPR”, for which the protein production entry is given as “not failed”. Turning to “MANRSHHNAGHRAMNALRKSGQKHSSESQLGSSEIGTTRHVYDVCDCLDTLAKLPDDSVQLIICDPPYNIMLADWDDHMDYIGWAKRWLAEAERVLSPTGSIAIFGGLQYQGEAGSGDLISIISHMRQNSKMLLANLIIWNYPNGMSAQRFFANRHEEIAWFAKTKKYFFDLDAVREPYDEETKAAYMKDKRLNPESVEKGRNPTNVWRMSRLNGNSLERVGHPTQKPAAVIERLVRALSHPGSTVLDFFAGSGVTARVAIQEGRNSICTDAAPVFKEYYQKQLTFLQDDGLIDKARSYEIVEGAANFGAALQRGDVAS”, the protein production result is “not failed”. The same measure for “MANTATDQRADTLMLVHVPADRKKTYAISLMRDLWIDIPGVGESKINAALAYGGVPLMVQTVESLLQQRIDHVAMIDFQGFKGLTDALGGVEVDVRIPFAPSSGPKAGQVYDAGKQTLNGDEALAFVRERKAFSDGDYQRVRNQQAYLKAIIGKVIARETLTNPVTISNMVSAVSPFVSVDKDFDAAAIGSLALSMKDVRAQDTVMFTLPTLGTGTSPDGQSIVLADTTAIADVTAALAKDQVDAYITAHALDKGFLEHHHHHH”: “not failed”; for “MANTYGGVIFLGIEEKPKGRFSVTGIAVPERVLKALWDGLNNRQRISINLLTDKMVEVIEIQGKQVIRIQVPRARRAQRPVYVGQNPLTGTYRRNYEGDYLCDEETIKRMLAEQVEEVRDARLLENYGFDDIEPNTLKAYRNQYDLTKALSALVRDGFLESGGIARGTFYFFPGEPPNAEADLVAQNYKFVEKSSPEDLLLGIIPKEIFDDLKPSSDDLKPSSDDLEPSSDDLEPSSDDWQSLMAIAVTIRNKGKVSTDIMEATILRLCQGRFLNHKQLQELLDRSYNTLRLGYLSKMHKKGQLELRYPDKLTHPNQGYRTKNSSSSDF”: “failed”; for “MAPLNYKTITSRSILSKVLVRATQQWPTDKTLNKQLSELYGAYVNSFVSKFKDKHVITISLEVVNEKFLKDKTPLFEKGLDTLKEIIWNPLIKDRCFDHTYVAQEKSLLSKKLEAMEDNKAQYSFLQLMNYMFKQEPYRYIATGQLEQIPQVTSESLYDTYLSMVQNDDCAIYVVGNINKEEVTQLILDKFAIKPFYLENKESTEITPSFDQPQYIIEKDDVDQAKLNLGYRFPSYYGKSNYYAFIVLNMMFGGDPSSVLFNEVREKQSLAYSIHSQIDGKNGFLFVLSGVSAEKYEQAKDTVIKEFDKIKNGDFDSNKIELAKKIIISHRHEASDRPKSIIEILHNQLLLNRQQTDQDFINAVNQVTKKDVIKLANEAVLDTIYVLTKGDQH”: “failed”. The same measure for “MAPLPLAVIVYEPGDVLEEILAAARDRLVGLPDVRIAGLVPRLGPRHSNGRASFWLDDIVRGDSIALSQDLGPGSTSCILNADGLATARMRLAEAIAVRPDLVLFGRFAKEEIAGRGIREEIGLALAQDVPALVAVERAMLPGWIAFAAEGWTMLPADADAVVAWFVALAAERQSADTLEHHHHHH”: “failed”. The same measure for “MAPPSDSDPREPSPPLFQGRGLTKRFGSFVANQAIDLDIAGGEVHALLGENGAGKSTLVKLITGLLQPDDGRMIWRGTPISFAGPAEARACGIAAVSQHFALFDNLTVVENVALGLDRRISVGRLATELEQISQRYGLPLDPKREVWRLSVGERQRIEIVRALLQNPQLLILDEPTAVLTPAEADRLFDVLQRLRADGRALLYISHKLDEVKRLASVATILRAGRVVGSCDPRQESAASMARMMVGSDVTAPKQSSHSIGGPLLSVSGLTQRPDDPHGVTLRDIALEVRSGEIVGIAGVAGNGQDELFAALSGETPIAQSDVIHIAGEAAGSLSINQRRRLGAAFVPEQRLGHATVPTMSLSDNALLTGHATGALVKFGLVNRGAALALVDRVSEAFDVRKASRDPEAARLSGGNLQKFIVGREILRQPRLLIVDQPSWGLDAGAASAIRQALLDLAASGAAVLVISQDLDELIEIADRIAVMFHGRLSPPRPVSEIGRDQLGLLMGGSGWPAEVRDVAGALEHHHHHH”: “failed”. For “MAPQPFDIDTPSLRVFLPAPELATGRAIVACPGGGYGGLAVNHEGYDWAPYFNKQGIALIVLKYRMPHGDRTLPISDAEAAMKMARDSADVWNLNPYDIGIMGSSAGGHLASTIATHTRPELRPNFQILFYPVITMDKSYTHIGSHDNLLGKDAFAELETEFSNEKQVTKETPRAFIAYSDDDKTVPPANGVNYYLGLHKNHVPAVLHIYASGGHGWGIRENFIYLEHHHHHH”, the protein production result is reported as “failed”. Consider “MAQENPLWMRHCAISPDGTTIAFTYKGDIFTVPVSGGKATQITTNPAFDTTPIWSPDSKQIAFASDRMGSMDVFIVSKDGGEPRRLTTFSGGETPVAFTDAGHILFTADIMPSTEDAGFPSNGQFQQIYQIPVSGGRPVMFSSMPMECISINKEGTILYQDKKGYEDYWRKHQKSPIARDIWMLRPGQTPRYEKQTTFIGEDREPVWAPDGKSFYYLSEENGTFNVYQRTPGSDTSKQVTHHKQHPVRFLEHHHHHH”, for which the protein production entry is recorded as “failed”. The same measure for “MAQKENSYPWPYGRQTAPSGLSTLPQRVLRKEPVTPSALVLMSRSNVQPTAAPGQKVMENSSGTPDILTRHFTIDDFEIGRPLGKGKFGNVYLAREKKSHFIVALKVLFKSQIEKEGVEHQLRREIEIQAHLHHPNILRLYNYFYDRRRIYLILEYAPRGELYKELQKSCTFDEQRTATIMEELADALMYCHGKKVIHRDIKPENLLLGLKGELKIADFGWSVHAPSLRRKTMCGTLDYLPPEMIEGRMHNEKVDLWCIGVLCYELLVGNPPFESASHNETYRRIVKVDLKFPASVPTGAQDLISKLLRHNPSERLPLAQVSAHPWVRANSRRVLPPSALQSVA”: “failed”; for “MAQLPASMRRKRAAITSIHEKPPSRKQKLVNAGGWILLCIAFVVLAAGVYGLYKVITDAKIADLSIVGTRSVVEQNQLQQHIQPIIKDNYFTSDLEQIRDKALEISWVDRVVVSRAWPNSIRVRIMPRHAIARWGTGRLLSDSGDVYAEAELKNHPNLPMLHGPITQSKAMMRRYNEINQLFQPVNLRLTELYLTERMTWFMQFDSGLRVIVDQDQTMSKLQRLSHLAQTDLKPVWSKISAIDLRYRNGLSLQWKTGVPPKILNGQFVVTSDDTNVASGMTAKP”: “failed”; for “MAQLSARAREDPAAVVDCLPELRQELATLDPRPREHAAEVVATIAHHYPEAARTAVDDIRPLLSDANPGVRAEAARALAEVATTFPDAVYPSVCDLLDRLTDDHYESRVNAAWALAELATEQPAGLRPAVEALCGVLTDDVAAVRAGGVWALAELAEEYPEPVRNAVPALRRLLDDDATLVRVHAARALAVLAETHPDAVEPARVDLEAFGNGEPEDLRKAVTFALAQLDEQTTEAKATSTAGATIDDPLPEEEWIFGGSDTETTATSSGLSAGGIPETVPDVPTPDLSYDDLKKQTTVENGDLSAVYRAAASTENGTVPVALKELRPSDGATLDSDLAHEAYTEARRWEGLDDHDHIVTLVDYGREPTVWFAMEYMDAGHLAEVADSLAFEHRLWSALVLTRAIRRAHRAGILHLNLKPENVLFRTVDDGWAVPKISDWGMEIQPHQDDHDVVPRYAAPEQLADDGRTDGVTDVYQLGRAFYQLFTGRPAFETTPECPADIVEAEPPAPSDIASVPAAVGDIIRTAMAPSQPDRYGAVVYLQEELETICADHGVPTT”: “failed”. With “MAQPSTTYKFELNLTDLDRGVYESVKQTIARHPSETEERMTVRLLAYAFWYNEQLAFGRGLSDVDEPALWEKSLDDRVLHWIEVGQPDADRLTWCSRRTERTSLLAYGSLRVWEGKVIPAIKNLKNVNIAAVPQDVLEVLAKDMPRVIKWDVMISEGTVFVTDDRGQHEVQLQWLTGERG”, the protein production result is “not failed”.
